Assay results taken from patent US20250383346A1.

Biological target: Her2 extracellular domain antigen (ACRO Biosystems) (UniProt P04626)
Test: SPR (Carterra LSA), Fab captured from lysate on Fab Kappa capture reagent, Her2 ECD in solution

Kd: 100 nM
Substance: five standards of trastuzumab Fab
